These results are taken from article PMC3874396.

For test [1], the target named is RNC^EspP-Hydro-SRP complex (SRP with DACM-labeled Ffh(C235), loaded with RNC^EspP-Hydro) (Escherichia coli | not stated) (UniProt P0AGD7). The experiment in a line: FRET or BRET.
Test [2] has as its target RNC^EspP-SRP complex (SRP with DACM-labeled Ffh(C235), loaded with RNC^EspP) (Escherichia coli | not stated) (UniProt P0AGD7). In words: FRET or BRET. In general terms: BRET reads energy transfer from a luciferase to a nearby fluorophore.
Test [3] addresses SRP with fluorescein-labeled Ffh(C421) (Escherichia coli) (UniProt P0AGD7). The experiment in a line: […].

pKd: −log10 of the molar value.

The pKd is the Kd on a negative log10 scale, so that one unit is a factor of ten. A high value points to a small Kd. One may read the kon as the rate constant with which the complex forms. A higher kon goes with fast association. As for “BODIPY-FL (acceptor)-labeled FtsY(C487) (from UniProt P10121 1-497) (receptor)”, in test [1], the pKd was 6.52 and the kon was determined as 15200 M⁻¹ s⁻¹. In test [2], this substance gave a pKd of 6.51 and a kon of 9200 M⁻¹ s⁻¹.

As to “RNC^EspP (ribosome-nascent chain complex displaying the EspP signal sequence) (from UniProt Q7BSW5 56-88)”, the pKd in test [3] is 7.87.
